Laboratory results published in patent US20240190950A1 (SHANGHAI JIAO TONG UNIVERSITY, published 2024).

T1: FGFR1 (protein used in the ForteBio and ELISA assays) (human, UniProt P11362 22-376, limits assumed)
T1 construct: That entry still holds signal peptide, transmembrane and kinase parts; also called human FGFR1
T1 sequence: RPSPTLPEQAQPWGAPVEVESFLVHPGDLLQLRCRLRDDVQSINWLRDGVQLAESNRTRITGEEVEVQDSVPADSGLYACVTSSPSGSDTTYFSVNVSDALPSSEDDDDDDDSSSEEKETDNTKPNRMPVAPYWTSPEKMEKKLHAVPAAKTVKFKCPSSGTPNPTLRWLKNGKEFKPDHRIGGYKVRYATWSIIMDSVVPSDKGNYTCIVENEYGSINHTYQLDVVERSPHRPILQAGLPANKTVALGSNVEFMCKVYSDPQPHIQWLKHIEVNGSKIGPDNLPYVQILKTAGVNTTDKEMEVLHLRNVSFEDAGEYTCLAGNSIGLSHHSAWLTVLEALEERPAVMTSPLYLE

B1: 14E3 (antibody, IgG2a, V domains shown)
VH: QIQLVQSGPELKKPGETVKISCKTSGSTFTTYGMAWMKQAPGKGLTWMGWINTLSGEPTYADDFKGRFAFSLKTSANTAYLQINNLKNEDAATYFCAREPMDYWGQGTSVIVSS
VL: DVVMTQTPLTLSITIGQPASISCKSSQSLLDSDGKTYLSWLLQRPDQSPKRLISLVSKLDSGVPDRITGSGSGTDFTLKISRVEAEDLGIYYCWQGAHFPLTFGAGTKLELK
notes: also called anti-human-Gremlin1 (14E3); anti-human-GREM1 antibody 14E3
B2: Gremlin1 (human gremlin 1, hGREM1) (ligand)
chain: KKKGSQGAIPPPDKAQHNDSEQTQSPQQPGSRNRGRGQGRGTAMPGEEVLESSQEALHVTERKYLKRDWCKTQPLKQTIHEEGCNSRTIINRFCYGQCNSFYIPRHIRKEEGSFQSCSFCKPKKFTTMMVTLNCPELQPPTKKKRVTRVKQCRCISIDLD
modifications: biotin label in the ForteBio assay (site not stated)
notes: also called Gremlin1-biotin; Flag-tagged GREM1

Tests used:
[1] = biological target: B2; assay: ELISA, antibody titrated on Gremlin1 (Ab is anti-human-Gremlin1 14E3)
[2] = biological target: T1, FGFR1 (protein used in the ForteBio and …); assay: ForteBio (the text calls it surface plasmon resonance analysis); Gremlin1-biotin immobilized on streptavidin sensor, FGFR1 in solution
Source text: We next asked the mechanism leading to the activation of the FGFR1/MEK/ERK signaling pathway by GREM1. We performed surface plasmon resonance analysis (Fortebio) to first assess whether GREM1 can bind to FGFR1. […] Computer simulation imitated that GREM1 binds to the extracellular domain of FGFR1 as a dimer (FIG. 9B). […] In addition, the activation of GREM1 on the FGFR1/MEK/ERK signaling pathway could be attenuated by adding excessive amount of soluble FGFR1 (FIG. 9G).

Row | Binder | EC50 (read off the curve) [1] | Kd [2]
1 | B1 | ~10 ng/mL | 
2 | B2 |  | 10.6 nM
